According to the DeepSol protein solubility set:

experiment: soluble on expression in E. coli; label from the status in PepcDB or PDB records

| Sequence | soluble on expression in E. coli |
| --- | --- |
| MGSDKIHHHHHHMPLSSVSRPSTQIQAQSTGKIFIIGLPRTGTTSVCVALLEQGLKVAHQGFTQQSFYQADAIADAPVFSDFKQLDGLFPGAKFVYLSRDIAPWIISMQMLLGRMLIHLDEHTGRFHPIMKRSFNHSFKLNLVTNPFDEVHLKQCYLEHQQTVEEYFTGRNDLLKININQVGSLNRLLEFIELAPQDLASSIKSAPLNFPHLNIGRNVASWDEYKHPNKVSANLSGPNKRKFFDYTLS | not soluble |
| MSSVLRLAMRAKGFSRFLAETQAFPVKNRHFMTSSVRKTGDFEYEDPKSEDEVVNITYVLRDGTERKIRGKVGDNVMFLAHRYDIEMEGACEASLACSTCHVYVDPAFQNKLPEPLEEEDDMLDMAPALKDNSRLGCQIVLTKELDGITVTLPTMTRNFYVDGHVPKPH | not soluble |
| MAELKDQLSLLGRKTEYKQDYAPEVLEAFDNKHPENDYWVRFNCPEFTSLCPITGQPDFAEIRISYIPDIKMVESKSLKLYLFSFRNHGAFHEDCVNIIMKDLIKLMNPKYIEVTGIFTPRGGISIYPYANYGRPGTKFEQMAEHRLMNRE | not soluble |
| GPLGSPEFGYWITCCPTCDVDINTWVPFYSTELNKPAMIYCSHGDGHWVHAQCMDLEERTLIHLSEGSNKYYCNEHVQIARA | soluble |
| MLPLIKRLFSSAPKDGEGAQKKWPFSYVVVLLLAGVALMAASHWANSGEEAEAKPSAGQPSAPAEPAFLASKETKEKVIAAYEERYEKELKAALEAIEGVDDVTVVVNLDSTELKLYEKKRSTQQQTTEESDKEGGKRTIENESTNEEVIIIHNGEEETPLVVATKKPDIRGVLVVAKGADNLQIKKWIVEAVTRVLNVPSYRVAVLPKK | not soluble |
| MSLQPNDITFFQRFQNDILAGRKTITIRDASESHFKAGDVLRVGRFEDDGYFCTIEVTGTSTVTLDTLNEKHAQQENMSLDELKRVIAEIYPNQTQFYVIDFKCLEGHHHHHH | soluble |
| MRQRIAVVGGGPAGLAFARVMHRHDRSVTVLERDPAPDARPPGGTLDLHEGLGRLAMDKAGLSAEFEALSRPEGQAMRILDTDGTVLRDWRPDPAERANPEIDRGQLRDLLLGPLDVRWGQGVTKVVPGGRDGVLVHFEDGRQEAFDLVVGADGAWSRTRPAVSPVTPHYTGVTSVETSLDDVDTRHPDLARLVGDGSVAVYGVNRAVVAQRNSGGHVKVHAQFRAPLDWHAHLDLGDAEAVRSRLLTLFDGWTAPVLDLLRHGTGFVHRPLHVLPVSHTWTHVPGVTLLGDAAHLMPPLGAGANLALLEGAELAESLADGSADPDDAVRAFEERMWARAGRWAKITAAGLERLVSPDPAAALAVFDQVQPSRLEHHHHHH | not soluble |
| MEQDNSPQKIQFTVPLLEPHLDPEAAEQIRRRRPTPATLVLTSDQSSPEIDEDRIPNPHLKSTLAMSPRQRKKMTRITPTMKELQMMVEHHLGQQQQGEEPEGAAESTGTQESRPPGIPDTEVESRLGTSGTAKKTAECIPKTHERGSKEPSTKEPSTHIPPLDSKGANSV | soluble |
| MKIAGIDEAGRGPVIGPMVIAAVVVDENSLPKLEELKVRDSKKLTPKRREKLFNEILGVLDDYVILELPPDVIGSREGTLNEFEVENFAKALNSLKVKPDVIYADAADVDEERFARELGERLNFEAEVVAKHKADDIFPVVSAASILAKVTRDRAVEKLKEEYGEIGSGYPSDPRTRAFLENYYREHGEFPPIVRKGWKTLKKIAEKVESEKTQDMINKST | soluble |
| GSHMARGKLKAPKWPILKNLELLQAQNYSRNIKTFPYKELNKSMYYDKWVCMCRCEDGALHFTQLKDSKTITTITTPNPRTGGEHPAIISRGPCNRLLLLYPGNQITILDSKTNKVLREIEVDSANEIIYMYGHNEVNTEYFIWADNRGTIGFQSYEDDSQYIVHSAKSDVEYSSGVLHKDSLLLALYSPDGILDVYNLSSPDQASSRFPVDEEAKIKEVKFADNGYWMVVECDQTVVCFDLRKDVGTLAYPTYTIPEFKTGTVTYDIDDSGKNMIAYSNESNSLTIYKFDKKTKNWTKDEESALCLQSDTADFTDMDVVCGDGGIAAILKTNDSFNIVALTP | soluble |
| MEFVLASASPARRRLLQGIGINPIVHVSHFDESQIHHDDPAQLVEALAAAKAKTVAQHRQDALILGCDSVLHVRGEILGKPASPTEAIARWQTMRGHYGLLYTGHALVDQTQNQLLVRHGVTKVYFAAIDDDTIAAYVRSGEPLQCAGCFALEGKGGLFIEKIEGCHSNVIGLSLPLLREMLAHLGYTVQTLWP | not soluble |
| AHHHHHHGSVDYELLKKVVEAPGVSGYEFMGIRDVVIEEIKDYVDEVNVDKLGNVIAHKKGEGPKVMIAAHMDQIGLMVTHIEKNGFLRVAPIGGIDPRTLIAQRFKVWIDKGKFIYGVGGSVPPHIQKPEDRKKAPDWDQIFIDIGAESKEEAEELGVKIGTIVTWDGRLERLGKHRFVSIAFDDRIAVYTLIETARQLQDTKADIYFVATVQEEVGLRGARTSAFGINPDYGFAIDVTIAADVPGTPEHKQVTQLGKGTAIKIMDRSVICHPTIVRWMEELAKKYEIPYQWDILLGGGTDAGAIHLTRAGVPTGAVSIPARYIHSNAEVVDERDVDASVKLMVKVLEHIHELKI | soluble |
| MSLQAELVIKNGLVILETGEVITDVAVQGGKIVAIGQDLSGERVIDATGLVVSPGMVDAHVHITDPGGGYRDEWEGYVTGTAACAKGGVTTFMEMPLNQIPATVDKTSLEIKYKAGENKLKVDVGSFGGVVPTNLADGIQELDEGGVSGYKCFLGTCGDRSIEGDFQNVDDYSLYEGMKQVAKTGKVLAIHAENAPITDKLGAVAYQNGETTLAAYVATRPVFTEVEAIQKAILFAKETGCRIHICHVACQEGVEEVLKAQAEGVDVTCETCTHYLYFTTDELDAIGPVVKCSPPIRDADQQAALWNHVQTGGIAFVTSDHSPCTPDLKDTTNAFEAWGGISGVQNNVDVLFDEAVQKRGLSLKQFADMIAANPADRYHLAQKGRISIGKDADFVLIKPNAPYILKAEDLEYRNKISPYIGREIGAQVIQTILRGETIYAQETGVTEAFNGVFIKNEGHHHHHH | soluble |
| MSVFAFSFCAVVIMPNLLAMSDEETRGRQAMVANFVKDNQKTIRNGKGDKWMSNFLKTQNLTFHRSLSSPSAMSDSSSQNLVVLADVGTAACASGWTRYDLTGMCYQQSKKTMNWYQGEDYCWNLRPGAHSASVHSQEEAKWLNSLYRDKKNGGQMDSWIGLRRDCDNVTYIWTDGSPTDCLWWQPDYPKSEFAEFSCVTIWETDWLYDNPAYIPGQYDDMKECSDDGSNTPTTTTTMQTTTPSTTSTPTTTSTTTTTSASTTTISTTKPPTTQIDIEKCTSNCPVGWIYFGGLCYSKIQGPGRFVDFNSECTRLGGKLGEVSGADGNEALRLALTSNNGNKILDEAWIQHIGSYNNVASGYVGTAGSCYTVLKNSQTN | not soluble |
| MVSEMLSEAGHSVSYLKGGMKAWSEHLEPVKVGDLKDGGEMYQFVRIGKGCLSYMVISNGEAAIIDATRMVNFFIDFAKGKGATITHVFDTHLHADHISGGRVIAEKTKATYWLPPKDAEEVEFDYQPLEEGNDIIIGNTTIKIQPIYSPGHTIGSTSFIVDDQYLLSGDILFIDSIGRPDLAGMAEDWVGDLRKTLYSRYKALSKDLIVLPAHFMIIDELNENGSVGKQLSTLFSENHGLNIADETEFRHLVTDHLPPQPNAYQEIRETNMGKISPDEEKQREMEIGPNRCAIRLEHHHHHH | not soluble |
| MGSDKIHHHHHHMISAEQLVFTYHDQKNPACQISTCQIASGQFIVLCGPSGSGKSTFLKLLNGIIPDYYAGKYEGRLDVADCQAGRDSVETFSRSVASVFQNPASQFFYREVQHELVFPCENQGLDAKVIMKRLWTLAEDFAFAELLNKDMFGLSGGQKQRVAIATAIMQGTNIMLFDEPTANLDSAGIAAVKAYLTQLKAAGKTIIVAEHRLHYLMDLADNFFYFKNGRLTDKLTTQNLLALTDEQRQDMGLRRLDLSDLKPVLAGKIESQHYRPDDSLCIEHLTVRAGSKILRCIEQLSFAVGSISGITGSNGLGKSQLVYYIAGILDDKKATIKFQGIPLSAKQRLSKTSIVLQEVSLQLFAESVSKEVNLGHERHPRTTEVIERLSLTTLLERHPASLSGGEQQRVMIAASLLADKDILIFDEPSSGLDLLQMKALANLLMQLKTQHKVVILISHDEELLSSVCDTIYQMLP | not soluble |
| MGSDKIHHHHHHMSVGRIGFIGTGSITEAIVTGLATCADVPTEVWLSPRNAQIADRLAQAYPMVQVAGENQEVVDRCDVVCLAVRPQVAESVLQALRFSGRHHVISFIATYGLDKLRTLIAPAKTLVRAAPLPTVAEHLCNTLVFPADDIARSLFTQLGGAIEVGSEEAFDVLFSATATMGSYFALLHNQARWLEQHGSTYSEARDYLASLHFGLASVARKTQTRFDELSKEFTTAGGLNEQVLDALGAHRVFNAFDDAFDQVLHRIGGTVSQRNE | not soluble |
| MGSDKIHHHHHHMTTTEQELTLTPLRGKSGKAYKGTYPNGECVFIKLNTTPILPALAKEQIAPQLLWAKRMGNGDMMSAQEWLNGRTLTKEDMNSKQIIHILLRLHKSKKLVNQLLQLNYKIENPYDLLVDFEQNAPLQIQQNSYLQAIVKELKRSLPEFKSEVATIVHGDIKHSNWVITTSGMIFLVDWDSVRLTDRMYDVAYLLSHYIPRSRWSEWLSYYGYKNNDKVMQKIIWYGQFSHLTQILKCFDKRDMEHVNQEIYALRKFREIFRKK | not soluble |
| NISYFSIGSGTPIIFLHGLSLDKQSTCLFFEPLSNVGQYQRIYLDLPGMGNSDPISPSTSDNVLETLIEAIEEIIGARRFILYGHSYGGYLAQAIAFHLKDQTLGVFLTCPVITADHSKRLTGKHINILEEDINPVENKEYFADFLSMNVIINNQAWHDYQNLIIPGLQKEDKTFIDQLQNNYSFTFEEKLKNINYQFPFKIMVGRNDQVVGYQEQLKLINHNENGEIVLLNRTGHNLMIDQREAVGFHFDLFLDE | not soluble |
| MGSDKIHHHHHHMIYFETERLICRAFERADLQAFTAYRADPEVARYQSWQDYQYQDALALFENLQQTPFGANGTWMQLALVCRQTQALVGDLALHFIDAQQVEIGFTLASEHQGKGLAREALQGLLVYLFERLGKHRVSAITDVKNRAAWGLLERLGFRREAHYRDNIFFKGSWGSEYGYGLLAREWRQAQVGEPLQEFRLIKRVAPLNDFLRLRQITGLTPRSREAAELGLPLSLFGVHLLAGDRVLAMGRVVGDGALNFELVDIAVDPEYQGRGLGSAIMSAIMAYLDEMAPKGAYITLMADVPALYLKFGFEYSRPASEGMYKLQA | not soluble |
| MSLQPHLICLDLDGTLLNDNKEISSYTKQVLNELQQRGHQIMIATGRPYRASQMYYHELNLTTPIVNFNGAYVHHPKDKNFKTCHEILDLGIAQNIIQGLQQYQVSNIIAEVKDYVFINNHDPRLFEGFSMGNPRIQTGNLLVHLKESPTSILIEAEESKIPEIKNMLTHFYADHIEHRRWGAPFPVIEIVKLGINKARGIEQVRQFLNIDRNNIIAFGDEDNDIEMIEYARHGVAMENGLQELKDVANNITFNNNEDGIGRYLNDFFNLNIRYYEGHHHHHH | soluble |
| APIKGVTFGEDTVWEVQGYKNVRITFELDERVDKVLNEKCSVYTVESGTEVTEFACVVAEAVVKTLQPVSDLLTNMGIDLDEWSVATFYLFDDAGEENFSSRMYCSFYPPDE | soluble |
